Reference: publication PMC9109717

Substrate: Nc1ncnc2c1ncn2[C@@H]1O[C@H](CO)[C@H]2OP(=O)(O)O[C@H]21
Assay: purified protein
Type: biochemical, Thermobifida fusca
Conditions: pH 7.5

B1: (Thermobifida fusca YX) (protein)
chain: MPEHDSTDDKHGIPPLDLRFWAKERGLRGKTYPLVCHSLDAAAAALVLWNEYLSPGLRDTIASSMETDEEHAGHCIAFWAGLHDIGKLTREFQQQIAIDLSAYPGEELSGEQRSHAAATGKWLPFALPSLGYPNGGLVTGLVAQMLGGHHGTFHPHPSFQSRNPLAEFGFSSPHWEKQRHALLHAVFDATGRPTPPDMLDGPTASVVCGLVILADWLVSQEDFLLERLTSLPADGSASALRAHFETSLRRIPSLLDAAGLRPITVPPATFTESFPHLSKPNGLQASLAKHLPCLCTGPGLVLITAPMGEGKTEAAYHVADLLGKATGRPGRFLALPTMATADQMHTRLKEYARYRVENTDLPRSSTLALLHSMAWLNPDYAPADLPGVSKVLSNLGHRDPFAATDWLMGRKRGLLAPWAVGTIDQALMAVLRAKHNALRLFGLAGKVVVVDEAHAVDPYMQVLLEQLLRWLGTLDVPVVLLSATLHHSIANSLVKAYLEGARGRRWNRSEPQPVSEVSYPGWLHVDARIGKVTRSSDVDPLPIATTPRKPLEVRLVDVPVKEGALNRSTVLAKELTPLVKQGGCAAIICTTVAEAQGVYDLLSQWFATLGEDAPDLYLLHSRFPNRQRTEITATIVDLFGKEGAQSGRRPTRGAVLVATQVVEQSLDLDVDLMISDLAPVSLLLQRAGRCWRHEHLGIINRPQWAKQPELVVLTPEQNGDADRAPWFPRSWTSVYPLALLQRTYTLLRRRNGAPVQIPEDVQQLVDDVYDDDSLAEDLEADMERMGEELAQRGLARNAVIPDPDDAEDNLNGLTEFSFDVDEHVLATRFGAGSVRVLCYYVDTAGNRWLDPECTVEFPEQGTGREGRFTMADCRDLVARTIPVRMGPWASQLTEDNHPPEAWRESFYLRDLVLIPQRVTDEGAVLPTETGGREWLLDPCKGLIF
For B1, the Km was 27 (±6) mM.
